Experimental data: the DeepSol protein solubility set

Test: soluble on expression in E. coli; label from the status in PepcDB or PDB records

Sequence	soluble on expression in E. coli
MNKKQRDEISKLLSYVLRHAPESMGLTLDRDGWCEVDELVGKANANGHSFDRQALEEVVETNEKKRFTLSEDGQRIRAAQGHSTEQVQVQHIEKEPPAWLYHGTASRFMASIETQGLIAGSRHHVHLTEDPETALSVGKRYGQPVLLAVDAKGMFEAGVQFFQADNGVWLVEAVPIEWLTKVADTVSLEHHHHHH	soluble
MSLSLPPPRRVVLTTPTHFDVEYVINPHMSENVGAVNTDVAWQQWKALRAAYTALDHTPVLVNGQSGLPDMVFCANQTLPFYDPASDSKGVVLSRMHSEQRADEVPYYARFFEEEGYAVDTLPEDLDADFEGMGDALWHPGHHLLWGGYGYRTSPEAYEALGDLLDVPIVALRLVDPDYYHLDTCLCPLDARHALVAPEAFDDAGRALIDALFETVIEVPDHEARHQFACNAHCPDGAHVLIQEGCEGTNAQLRNHDFVPVELDTSEFMKSGGSVFCMKQMIWEGHHHHHH	not soluble
MGSDKIHHHHHHMHFVMIFLDGFGLGGDRDNPIMAAHTPYIDELLGGHYLWGQERRIESEQLILIPLDASLDVTGIPQSATGQTTLWTGVNGAKALGFHLNAYPNEKLAEIIKEKSIFKQLADQGKKVTFANTFTSHYDEMIASGKRRHTASTLSALAGGVPLRRIEDLLQGKGVYQDMTNEILRELEQEADIPLITSYEAGKNLGRLALDYDFTLYEFFQTDVRGHKQDWEKAVALIEQIDGFIGGFMSVVRHEDVTWLLTSDHGNIEDFRVKGHTQNPVPALGWSSKPLEWPQWERLEDVTPGIVRMILGTREL	not soluble
EHQAILSKRLESVESDIRLEQNTMDMTRIDARKMQMTGDLIMKNSVTVGGIAGASGQYAATQERSEQQISQVNNRVASTASDEARESSRKSTSLIQEMLKTMESINQSKASALAAIAGNIRA	not soluble
MAHHHHHHMLRGVTIKCGNVTNAVRVPSRFISMAPTRNEEKATQKRNKWEYILSLDEALYLSKEMGIKTTTEVQKIVMRSPPFSPDMSPFLIDNFLCSANRGSHSDEIAQIDQKLKALEERGDNSQESEKGEVQVALHNNEMNDTAQNREEDIINKILIDKFNKKRGKTFIHNDMEWLEESEGIGTNKRSSAYVYIKRGSGIVKVNDEEDLYIRWPYFYNRMDVLEPFYVTNTACVFDVFIKLKGGGISGQSKAARLAVGRALLNACPLIYDELKQHHILYEDMRQKLPKMPGRKKSRAMKQWSKR	not soluble
MREWKSQDAWKQHSLRLCFGVWPGTEFLHRPRAVHRRSGVVCSQMQTEDSHPETPQVPKESLQEEKDSSPATDASFIQSQDGKTVFLDRRTERRIQRGFVLTERGPRSIWKPAGTSSQRNERVPRRAAARGGAGPPDTTPQLATVRVLVLGANHVAQRLAELLSSHSRVCGCYFVSETTDEAAIESMKKYAYALPLRSALNDDEVVRVAEWVLADYVFLVPTGETHDDGVSLKDKERLERTLAQNRVTFMDENLTGLLLENPSLIDALFRARDSLEA	not soluble
MDFVTGAVAHRRKFGGGRGQSIAKAVGLKQGVTPKVVDGTAGLGRDAFVLASLGCTVTMVERHPVVAALLEDGLRRAYQDAEIGDWMRERMQLFHGSSLEALAKLEQGVDVVYLDPMYPHRDKSALVKKEMRVFQTLVGADLDADGLLAPAMALASKRVVVKRPDYAEDLAGVKPSMVIETKKNRFDVYVKSAMKLEHHHHHH	not soluble
MSHELVELLRSVLKEELQPIHERLDRLEAGQQRLEERQQRLEERQQRLEERQQRLEEQQQRLGEKLDHFIIETRSHFKKIEDKLAGHRRMFDILPHDWRDTTMAIEYLKHKISQHDLEIYQLKKRLELQETK	not soluble
MLFTEMEIEIPKAVFEELQLYIEYLQEKTGKTIDPMAAIGNILQTYFENNGLWGVSEEDFKEKAKIAVKKLLTKKAKKDKPLLTKKVEKLLTQAVEIEQVPAKTAGQIAYQAKALVQVTFPHRDPKTPYYRCDSGKYSLIITADPDHGIPYGTYPRLITCWLVTEIVRTNSRRIVLGKCFSDFLRSIGVGLDSRTRKQVEQQIKRLFSADIKLKYNSKESWQFQRCNVATKAAMWWDTKNPDQFTLDESFVVVGEDFYAMALNAPFPIDLRALAALKQSPMALDIYMWLTLRMCHLAAPYPLSWPQLKSQFGPETSDLDNFRTKFKDALKKVRVVYPHAKLSVNAKELTLFPSPTHVQKAVKRVAALEHHHHHH	soluble
MASRVNIVQVQILDNPAMFVDKFKMEITFEVFEHLPHDLEWELVYVGSGTSRDFDQVLDSALVGPIPEGRHKFVFDAEHPDISKIPVEDIVGVSVLLLRCKYNDQEFINMGWFVANEYTDEELKENPPAKPLIEKLSRKIETEDLRVTTFPIRWTDEDPVAEPVDEEANKVFDEDDLMPLHDDGQDDDEEEEDDDETGPNTEEVDLNESFNERMANAHDGTEQKNGEESMEHDGASGDVEMGDKH	soluble
MADRKLVVVFGATGAQGGSVARALLEDGTFRIRVVTRNPEQRAAKELKQQGAEVVRGDQDDAASMELALAGAHATFIVTNYWETCSQDREVQQPHQWDQVFKQGKLLADLAKRLGLHYVVYSGLENIRKLTAGKLAAGHFDGKGEVEEYFRDIGVPMTSVRLPCYFENLLSYFLPQKAADGKSFLLDLPMGDVPMDGMSVSDLGPVVLSLLKKPEEYVGQNIGLSTCRHTAEEYAALLSKHTGKAVHHAKTTPEDYEKLGFQGAQDLANMFRFYTLKPDRNIHLTLRLNPKAQTLDQWLEQHKGDFAQL	soluble
SNTRNFVLRDEDGNEHGVFTGKQPRQAALKAANRGSGTKANPDIIRLRERGTKKVHVFKAWKEIVDAPKNRPAWMPEKISKPFVKKERIEKLE	soluble
SGIAVSDDCVQKFNELKLGHQHRYVTFKMNASNTEVVVEHVGGPNATYEDFKSQLPERDCRYAIFDYEFQVDGGQRNKITFILWAPDSAPIKSKMMYTSTKDSIKKKLVGIQVEVQATDAAEISEDAVSERAKKDVK	soluble
GPGSMTTQNGVNYSQREVVHRMPDWVANRRASVNRGHVAPPLTADGMNPRKASFSGSNGEKQGAVYNNYTERVSSRSGGDRIFSFDNRSTSRRESGTNVSVRSLQPVAGRTAVTHTIRFRGARWSQALSNMSVALERAIKEDVAACCGISSERIGQMKMKFTDRLVVTFVLDHSHDPSEESRFHNQLKVYNFWRTVALYPRK	soluble
RPDQVKLALDKPAYNDGDTAKVTVTPPAAGKGYLLIESSEGPLWWKEIDVPAEGKSYEIPLDKQWARHDLYVTALVIRPGERKANVTPKRAVGVLHLPLDRAQRKLALTVTAPEKMRPKQPLTLKVVAKNADGSVPEQVQVLVSAVDVGILNITRY	not soluble
MSLGGDQAAGAVLPVTIFTARKFITMERGAPEATAVAVAGKRIVAAGSLAEVKTAVGSRPFTLDETFASKIVMPGLIDQHLHPVLGALTLAVEVIAPEDWVLPGGTHKAAGSADAYQARLKAADAKLDKPDAWLLTWGYHALWHGKLDRAALDAINPTRPIAVWHRSCHEFYLNTPALAALGISEAMTQNQGQASEQSNWREGHFWEGGLNLMMTPMLKVLATPERLAFGLKQMVSYLHANGVTAYMEPGALYTPDMWKLYEQILGAPETPMYATFIADGRGIVDRVGLDGALDAVEQQIAVAPEAPGRKLMFFPGQIKLFADGAIISQLMQMKDGYLDGHQGEWIIPPDELERRARLFWNAGYQIHTHVNGDLGLEKLLDILEKLNAEHPRPDHRSVIVHFANSTEDQVARIKRLGALVSANPYYTTGFADKYSAVGLGPERADAMVRAKSVLDQGVPLSYHSDLPMAPSAPLYLAWCGVNRLTPSGRVAGPEQRVSVDAALRAITIEAAYSWRHEDQLGSIAPGKIANFTVLEQDPYAVPPEQLKDVPIWGTVFEGRVFPVGREGHHHHHH	soluble
MPSNSTTGAQKCSRKVHSLKFKLEAIEYASKFSKTKAARDLKVSRQCIQDWVAQKTKIESQLKSTNKTAPKRLEGGGRPVQRETVDESVLRWFRDQREKKFRVSRNLIRQKAKEICGEDDFKASTGWLQKFMRRHHLSTRRATTTCQKEPDEFAKKIVDYVLFVEKMRLQNKYTDTHIFAADETAVYLDFSNSLTLNEKGAREVGKTNTLFFYFSHPMMKRCLILFQVPVKTTGHEKMHVTVLLTARADGYKCRPYVLLPRTRPDKEIAARFKNSLQLSWCNRTFFNDEVTEDYLNTIIGPPFFGKRLLAWDAFRCHISDATKRVLKNLKVDTAVVPGGCTKFVQAPDVYWNSPFKASIRRSYEDWMVHGQKSFTKSNNMRPPSMLQYLEWIENAWNDLPKDLILKSFKGCALTIATDGSEDNQVHCFAPNGSIPSGLDLLNSTRIENSLVDLVQDIGIDESQEEGNESDNSIISVG	not soluble
MAHHHHHHMLNILSYSKLFSSCGRQAVTCPKGCNSYRHVSTGSDECLFTDGRASMGREFTLQPVEMEPVFKVHRPYSSSNCDNPISEDDLPYECGASSDCNTRSSTLRERAVCDEPLAKGLQNTTASTPYRVSWYERGAVSPSKRFVYWAFRRLWDLPPDAREYYRRMLYQEVRAARYVNQTWDCFMMVVDGYRKGKWILKKYGIKIDEGLIPKPYNNFWEETTHEERVWAHRRSHQMKDLQALQREDDNLVFGAHIMDRREVTYGSVKNLQTGMQGGTPVHAHDLPAPFEADVKMSLHEEDISSALMSSIEDDKLWNPVLRSRVHNKLARDEAELYGFEDEDDGDDRS	not soluble
MGSDKIHHHHHHMFISDVHLGSKAAKADFLIDFLRYHDADIIYLVGDIVDGWRLRRSWHWPQSHNDVVQKLLRKARKGASITYIAGNHDEFARQFQGVHFGGIVVADRAIHETADGKRLLVIHGDQFDTVVHNQRWLAYLGDHAYDAAMIVNRVVTRLRQLLGLPYWSFSSWAKVKVKKAVNFIGSFQTVLTEEARRSHVDGVICGHIHHAAIENFDDVRYINTGDWVESCTAVVEHFDGRMEILTWAQVLPESFDEPFIPMLIEDRVGQAA	not soluble
MGSDKIHHHHHHSCNEDDGAPYPSVRLEFLTAESGADGRLQTLVTDKGERLVVAEDRTESELLPNSSSRVVSNYEVLSSVGGRKEIRIYALANTVSPVPLPAGEFRNGLKFDPVDMLSIWMGRDYLNMTLSIRAQNARHTFHFIQESVERDAVTGKLKVHLMLYHDDGGDVEAYAKRAYVSVPLRQYTSDIGESVIIYFSFHTYDGEVQTYQFEYVPSHLTINY	not soluble
MSIATTPLHTALSLPQIQSFAASDMAAIDTLIHDRLTSDIVLINQIADHIICSGGKRLRPMLTMLAGHAIGPTGPHHHQLAAIIEFIHTATLLHDDVVDGSELRRSRSTANALWGNAPSVLVGDFLYSRSFQLMTELANLEVMQILAETTNRISEGEVLQLLHVHNPDTDETTYLSVIERKTAILFAAAAQLGALASHADTQTQTRMYEYGMQLGYAFQITDDVLDYTANNSQLGKNLGDDLAEGKATLPVIHAMTHSDAATCERLRMIISKGDSDAMPEVLNAIRTTGSLDYSRQRASAYAATAERALDGLPETEAVAALRGLARYAVQRTY	not soluble
MEGIMNPYTALPTPQQLLAIEQSVYSSDPFRQGLTPPQMPGDHMHPYGAEPLFHDLDSDDTSLSNLGDCFLATSEAGPLQSRVGNPIDHLYSMQNSYFTS	soluble
MADLFDGMKRRMDALIAERFGMKVNINGTDCIVVESDFLAELGPVEGNGKNVVVFSGNVIPRRGDRVVLRGSEFTVTRIRRFNGKPQLTLEENNGGKGA	soluble
